# Data: patent US20110318339A1 (FABRUS, published 2011)
# T1: rHuman Erythropoietin R/Fc Chimera, CF (Cat# 963-ER) (human, UniProt P19235 25-250)
# T1 construct: Bought from R&D Systems; also called EPO R/Fc; Epo R/Fc chimera
# T1 sequence (looked up): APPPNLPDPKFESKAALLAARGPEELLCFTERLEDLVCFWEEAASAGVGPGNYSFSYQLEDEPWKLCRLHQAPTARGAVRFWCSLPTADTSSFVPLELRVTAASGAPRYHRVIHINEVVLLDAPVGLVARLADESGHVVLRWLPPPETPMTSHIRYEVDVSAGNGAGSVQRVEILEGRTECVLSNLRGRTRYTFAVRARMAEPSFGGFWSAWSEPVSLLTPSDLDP
# Assays:
# [1] = biological target: T2, rHuman Notch-1/Fc Chimera, CF (Cat# 3647-TK) (human, UniProt P46531 19-526); assay: Multispot ECL; Fab 230 nM
# T2 construct: Bought from R&D Systems
# Procedure: (§1) An 150 μl aliquot of 1% Bovine Serum Albumin (BSA) in Tris-buffered Saline Tween (TBST) was added to each well and allowed to incubate for 30 min at 20° C. followed by washing and tap drying to completely remove any residual solution. Subsequently, a 12.5 μl aliquot of 1% BSA TBST was added to each well followed by the addition of a 12.5 μl aliquot of a purified Fab. The plate was sealed and incubated for 1 hour at 20° C. with shaking.
# (§2) Detection antibodies were prepared by individually conjugating both goat anti-human Kappa light chain polyclonal antibody (K3502-1MG, Sigma-Aldrich) and goat anti-human Lambda light chain polyclonal antibody (L1645-1 mL, Sigma-Aldrich) with Ruthenium (II) tris-bipyridine-(4-methylsulfone)-N-hydroxysuccinimide (SULFO-TAG NHS-ester, Meso Scale Discovery) according to the manufacturer's instructions. TAG-detection antibody at 25 μl was added to each well and allowed to incubate for 1 hour at 20° C. with shaking. Finally, 15 μl of Read Buffer P with Surfactant (Cat # R92PC-1, Meso Scale Discovery) was added to each well. The electrochemiluminescence was measured using a Sector Imager 2400 (Meso Scale Discovery). Data was analyzed by comparing the ECL signals for an antigen to the blank of each well. A signal to blank ratio of 4 or more was considered a “Hit” Fab.
# (§3) To confirm a “Hit” from the initial Multispot ECL screening, a Fab concentration dependent titration was carried out to determine the Fab-antigen binding affinity.
# [2] = biological target: T3, rHuman IGF-1 sR, (IGF-1 sR), CF (Cat# 391-GR) (human, UniProt P08069 31-932); assay: Multispot ECL; Fab 230 nM
# T3 construct: Bought from R&D Systems; also called insulin-like growth factor-1 soluble receptor
# Procedure: as §1, §2, §3
# [3] = biological target: T1, rHuman Erythropoietin R/Fc Chimera, CF …; assay: Multispot ECL; Fab 230 nM
# Procedure: as §1, §2, §3
# [4] = biological target: T4, Recombinant Human DLL4 (Cat# 1506-D4/CF) (human, UniProt Q9NR61 27-529); assay: Multispot ECL; Fab 230 nM
# T4 construct: Bought from R&D Systems; also called rHuman DLL4; hDLL4
# Procedure: as §1, §2, §3
# [5] = biological target: T2, rHuman Notch-1/Fc Chimera, CF (Cat# …); assay: Multispot ECL; Fab 920 nM
# Procedure: as §1, §2, §3
# [6] = biological target: T3, rHuman IGF-1 sR, (IGF-1 sR), CF (Cat# …); assay: Multispot ECL; Fab 920 nM
# Procedure: as §1, §2, §3
# [7] = biological target: T1, rHuman Erythropoietin R/Fc Chimera, CF …; assay: Multispot ECL; Fab 920 nM
# Procedure: as §1, §2, §3
# [8] = biological target: T4, Recombinant Human DLL4 (Cat# 1506-D4/CF); assay: Multispot ECL; Fab 920 nM
# Procedure: as §1, §2, §3
# [9] = biological target: T2, rHuman Notch-1/Fc Chimera, CF (Cat# …); assay: Multispot ECL; Fab 57.5 nM
# Procedure: as §1, §2, §3
# [10] = biological target: T3, rHuman IGF-1 sR, (IGF-1 sR), CF (Cat# …); assay: Multispot ECL; Fab 57.5 nM
# Procedure: as §1, §2, §3
# [11] = biological target: T1, rHuman Erythropoietin R/Fc Chimera, CF …; assay: Multispot ECL; Fab 57.5 nM
# Procedure: as §1, §2, §3
# [12] = biological target: T4, Recombinant Human DLL4 (Cat# 1506-D4/CF); assay: Multispot ECL; Fab 57.5 nM
# Procedure: as §1, §2, §3
# [13] = biological target: T2, rHuman Notch-1/Fc Chimera, CF (Cat# …); assay: Multispot ECL; Fab 14.375 nM
# Procedure: as §1, §2, §3
# [14] = biological target: T3, rHuman IGF-1 sR, (IGF-1 sR), CF (Cat# …); assay: Multispot ECL; Fab 14.375 nM
# Procedure: as §1, §2, §3
# [15] = biological target: T1, rHuman Erythropoietin R/Fc Chimera, CF …; assay: Multispot ECL; Fab 14.375 nM
# Procedure: as §1, §2, §3
# [16] = biological target: T4, Recombinant Human DLL4 (Cat# 1506-D4/CF); assay: Multispot ECL; Fab 14.375 nM
# Procedure: as §1, §2, §3
# [17] = biological target: T5, Recombinant Human DLL4 (Cat# 1506-D4/CF, R&D Systems) (human, UniProt Q9NR61 27-529); assay: ELISA, DLL4 coated
# T5 construct: Bought protein; also called rHuman DLL4; hDLL4
# [18] = biological target: T5, Recombinant Human DLL4 (Cat# …); assay: SPR, DLL4 immobilised
# Procedure: In this example, the binding affinities of selected anti-DLL4 Fabs to recombinant human DLL4 (hDLL4, Cat# 1506-D4/CF, R&D Systems) were analyzed using Surface Plasmon Resonance (SPR) (Biosensor Tools, Salt Lake City, Utah). The Fabs analyzed include germline-derived antibodies and germline-modified DLL4 antibodies. Recombinant hDLL4 was immobilized on a SPR chip using amine coupling at three different surface densities. The Fabs were serially diluted 3-fold, with an initial concentration of 1 μM. Binding studies were run on a ProteOn system using a GLM sensor chip in 10 mM HEPES, pH 7.4, 150 mM NaCl, 0.01% Tween-20, and 0.1 mg/ml BSA at 25° C. The response data from each surface was globally fit to determine the binding constants.
# [19] = biological target: T6, DLL4 DSL (amino acid: 1-217) construct (human, UniProt Q9NR61 26-217); assay: Western blot, non-reducing
# T6 construct: also called DSL construct; not shown: myc tag (and his tag) added by the PCR primers
# Procedure: (§4) Media from transfected CHO cells was collected after 7 days. To enrich for the DLL4 protein, 1 ml aliquots of each sample were batch bound with 50 μl of Talon Resin for 30 minutes. To confirm protein production media samples were tested with mouse anti-c-myc mAb (Genescript; Catalog # A00704). Samples were washed and then boiled with loading dye in the presence or absence of DTT. A gel was run on each of the 2 samples for each condition: with DTT and without DTT. […] For detection goat anti-mouse HRP, goat anti-kappa HRP, and goat anti-lambda HRP were used, respectively.
# [20] = biological target: T7, DLL4 Egf1 (amino acid: 1-251) construct (human, UniProt Q9NR61 26-251); assay: Western blot, non-reducing
# T7 construct: also called EGF1 construct; not shown: myc tag (and his tag) added by the PCR primers
# Procedure: as §4
# [21] = biological target: T8, recombinant mouse DLL4 (Cat# 1389-D4-050/CF, R&D Systems) (mouse, UniProt Q9JI71 28-525); assay: ELISA, mDLL4 or hDLL4 coated
# T8 construct: also called mDLL4
# [22] = biological target: T5, Recombinant Human DLL4 (Cat# …); assay: ELISA, hDLL4 coated, estimated from dose-dependent binding
# [23] = biological target: T5, Recombinant Human DLL4 (Cat# …); assay: ECL competition, DLL4 coated; competitor 100 nM Ru-labeled Fab H:APF & L:wt
# Procedure: Briefly, single spot 96-well standard plates (MSD) were coated overnight with 5 μl per well of 10 μg/ml DLL4 (R&D systems) in PBS with 0.03% Triton X-100. Some wells were left uncoated as blank. The next day, an 150 μl aliquot of 3% BSA in TBST was added to each well and allowed to incubate for 60 min at 20° C. to block the plate. […] After incubating the plate at 20° C. with shaking for 1 hour, the ECL signal was measured using a Sector Imager 2400.
# [24] = biological target: T9, rHuman HGF R/c-MET/Fc Chimera, CF (Cat# 358-MT/CF) (human, UniProt P08581 25-932); assay: Multispot ECL; Fab 70 nM
# T9 construct: Bought from R&D Systems; also called HGF R/Fc; hepatocyte growth factor receptor (HGF R/c-Met)
# Procedure: as §1
# (§5) Detection antibodies were prepared by individually conjugating both goat anti-human Kappa light chain polyclonal antibody (K3502-1MG, Sigma-Aldrich) and goat anti-human Lambda light chain polyclonal antibody (L1645-1 mL, Sigma-Aldrich) with Ruthenium (II) tris-bipyridine-(4-methylsulfone)-N-hydroxysuccinimide (SULFO-TAG NHS-ester, Meso Scale Discovery) according to the manufacturer's instructions. TAG-detection antibody at 25 μl was added to each well and allowed to incubate for 1 hour at 20° C. with shaking. Finally, 15 μl of Read Buffer P with Surfactant (Cat # R92PC-1, Meso Scale Discovery) was added to each well. The electrochemiluminescence was measured using a Sector Imager 2400 (Meso Scale Discovery). Data was analyzed by comparing the ECL signals for an antigen to the blank of each well. A signal to blank ratio of 4 or more was considered a “Hit” Fab. […]
# [25] = biological target: T4, Recombinant Human DLL4 (Cat# 1506-D4/CF); assay: Multispot ECL; Fab 70 nM
# Procedure: as §1, §5
# [26] = biological target: T9, rHuman HGF R/c-MET/Fc Chimera, CF (Cat# …); assay: Multispot ECL; Fab 280 nM
# Procedure: as §1, §5
# [27] = biological target: T4, Recombinant Human DLL4 (Cat# 1506-D4/CF); assay: Multispot ECL; Fab 280 nM
# Procedure: as §1, §5
# [28] = biological target: T9, rHuman HGF R/c-MET/Fc Chimera, CF (Cat# …); assay: Multispot ECL; Fab 17.5 nM
# Procedure: as §1, §5
# [29] = biological target: T4, Recombinant Human DLL4 (Cat# 1506-D4/CF); assay: Multispot ECL; Fab 17.5 nM
# Procedure: as §1, §5
# [30] = biological target: T9, rHuman HGF R/c-MET/Fc Chimera, CF (Cat# …); assay: Multispot ECL; Fab 4.375 nM
# Procedure: as §1, §5
# [31] = biological target: T4, Recombinant Human DLL4 (Cat# 1506-D4/CF); assay: Multispot ECL; Fab 4.375 nM
# Procedure: as §1, §5
# T8 sequence (Q9JI71 28-525 limits assumed): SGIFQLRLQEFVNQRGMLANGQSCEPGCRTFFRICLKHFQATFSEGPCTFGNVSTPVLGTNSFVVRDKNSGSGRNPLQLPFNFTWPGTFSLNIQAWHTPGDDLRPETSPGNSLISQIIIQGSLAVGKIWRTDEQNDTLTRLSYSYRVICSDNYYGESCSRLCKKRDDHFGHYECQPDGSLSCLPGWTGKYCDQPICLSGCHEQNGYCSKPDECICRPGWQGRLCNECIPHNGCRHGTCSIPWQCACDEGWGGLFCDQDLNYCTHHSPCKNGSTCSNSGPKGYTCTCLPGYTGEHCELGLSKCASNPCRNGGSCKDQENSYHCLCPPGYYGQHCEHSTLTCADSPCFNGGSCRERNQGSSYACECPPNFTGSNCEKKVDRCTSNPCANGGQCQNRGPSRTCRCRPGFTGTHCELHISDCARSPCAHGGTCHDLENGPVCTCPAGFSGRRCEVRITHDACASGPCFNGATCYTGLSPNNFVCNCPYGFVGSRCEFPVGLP
binder,measurement,setting,value
"Fab VH1-46_IGHD3-10*01_IGHJ4*01 & L12_IGKJ1*01 (Fab, V domains shown, Germline-derived Fab from E. coli: VH in Plasmid A (CH1, His6 and Flag tags), VL in Plasmid C (kappa CL)) VH: QVQLVQSGAEVKKPGASVKVSCKASGYTFTSYYMHWVRQAPGQGLEWMGIINPSGGSTSYAQKFQGRVTMTRDTSTSTVYMELSSLRSEDTAVYYCAREYYYGSGSYYNDYFDYWGQGTLVTVSS VL: not shown",ECL signal,[1],9740
same,ECL signal,[2],4760
same,ECL signal,[3],6950
same,ECL signal,[4],119000
same,ECL signal,[5],20100
same,ECL signal,[6],10200
same,ECL signal,[7],16400
same,ECL signal,[8],73600
same,ECL signal,[9],5890
same,ECL signal,[10],2830
same,ECL signal,[11],4040
same,ECL signal,[12],144000
same,ECL signal,[13],4210
same,ECL signal,[14],1750
same,ECL signal,[15],2720
same,ECL signal,[16],125000
"Fab VH1-46_IGHD6-6*01_IGHJ1*01 H:APFF VLTH & L6_IGKJ1*01 L:NDH LS (Fab, V domains shown, all other places give 370; also called Fab H:APFF VLTH & L:NDH LS; anti-DLL4 Fab H:APFF VLTH & L:NDH LS) VH: QVQLVQSGAEVKKPGASVKVSCKASGYTFTSYYMHWVRQAPGQGLEWMGIVLPTGHSTSYAQKFQGRVTMTRDTSTSTVYMELSSLRSEDTAVYYCAREEYAPFSAEYFQFWGQGTLVTVSS VL: EIVLTQSPATLSLSPGERATLSCRASQNVDHYLAWYQQKPGQAPRLLIYDALNRSTGIPARFSGSGSGTDFTLTISSLEPEDFAVYYCQQRSNWPPWTFGQGTKVEIKR",fold increased binding affinity against the antibody mutants with heavy chain H:APFF ALTH,[17],~10 fold
same,fold greater affinity for hDLL4 than for mouse DLL4,[18],5 fold
same,binding result,[19],no binding (tested: 20 nM Fab)
same,binding result,[20],no binding (tested: 20 nM Fab)
same,fold decrease in affinity for mDLL4 against hDLL4,[21],10 fold
same,Kd,[22],~1 nM
"Fab VH1-46_IGHD6-6*01_IGHJ1*01 H:APFF G56H & L6_IGKJ1*01 (Fab, V domains shown, Fab, kappa light chain; also called H:APFF G56H & L:wt) VH: QVQLVQSGAEVKKPGASVKVSCKASGYTFTSYYMHWVRQAPGQGLEWMGIINPSGHSTSYAQKFQGRVTMTRDTSTSTVYMELSSLRSEDTAVYYCAREEYAPFSAEYFQFWGQGTLVTVSS VL: not shown",Kd,[23],~30 nM
"Fab VH1-46_IGHD2-15*01_IGHJ2*01 & L12_IGKJ1*01 (Fab, V domains shown, Germline-derived Fab from E. coli: VH in Plasmid A (CH1, His6 and Flag tags), VL in Plasmid C (kappa CL)) VH: QVQLVQSGAEVKKPGASVKVSCKASGYTFTSYYMHWVRQAPGQGLEWMGIINPSGGSTSYAQKFQGRVTMTRDTSTSTVYMELSSLRSEDTAVYYCAREGYCSGGSCYSYWYFDLWGRGTLVTVSS VL: not shown",ECL signal,[24],1290
same,ECL signal,[25],2750
same,ECL signal,[26],3560
same,ECL signal,[27],8110
same,ECL signal,[28],565
same,ECL signal,[29],1220
same,ECL signal,[30],193
same,ECL signal,[31],558
